{
  "source": "paper doi:10.1101/2023.04.28.538712",
  "about": "(bioRxiv, 2023)",
  "binders": {"B1": {"name": "Nb24 humanised variant, AbNatiV Exhaustive sampling (+buried) (VHH)", "VHH": "EVQLVESGGGLVQPGGSLRLSCAASGYTDSRYCMAWFRQAPGKGLEWVARINSGRDITYYADSVKGRFTISRDNAKNTVYLQMDSLKPEDTAVYYCATDIPLRCRDIVAKGGDGFRYWGQGTLVTVSS", "notes": "Parent: Nb24 WT; also called Exhausted +buried; source: E. coli Shuffle LysY, secreted to the medium, purified (His Mag Sepharose Excel beads, SEC Superdex 75)"}, "B2": {"name": "Nb24 humanised variant, Frequency and Structure-based humanisation (Llamanade) (VHH)", "VHH": "QVQLVESGGGLVQPGGSLRLSCAASGYTDSRYCMAWFRQAPGKGLEWVARINSGRDITYYADSVKGRFTISRDNAKNTLYLQMNSLRAEDTAVYYCARDIPLRCRDIVAKGGDGFRYWGQGTLVTVSS", "notes": "Parent: Nb24 WT; also called Frequency & structure-based; Frequency and Structure-based humanised variant; source: E. coli Shuffle LysY, secreted to the medium, purified (His Mag Sepharose Excel beads, SEC Superdex 75)"}, "B3": {"name": "mNb6 humanised variant, AbNatiV Enhanced sampling (+buried) (VHH)", "VHH": "EVQLVESGGGLVQPGGSLRLSCAASGYIFGRNAMGWVRQAPGKGREWVSGITRRGSITYYADSVKGRFTISRDNAKNTVYLQMNSLRPEDTAVYYCAADPASPAYGDYWGQGTQVTVSS", "notes": "Parent: mNb6 WT"}, "B4": {"name": "mNb6 humanised variant, Frequency and Structure-based humanisation (Llamanade) (VHH)", "VHH": "QVQLVESGGGLVQPGGSLRLSCAASGYIFGRNAMGWVRQAPGKGLEWVAGITRRGSITYYADSVKGRFTISRDNAKNTLYLQMNSLRAEDTAVYYCARDPASPAYGDYWGQGTLVTVSS", "notes": "Parent: mNb6 WT; also called Frequency & structure-based; Frequency and Structure-based variant"}, "B5": {"name": "mNb6 humanised variant, AbNatiV Enhanced sampling (VHH)", "VHH": "EVQLVESGGGLVQPGGSLRLSCAASGYIFGRNAMGWYRQAPGKERELVAGITRRGSITYYADSVKGRFTISRDNAKNTVFLQMNSLRPEDTAVYYCAADPASPAYGDYWGQGTQVTVSS", "notes": "Parent: mNb6 WT; also called mNb6 Enhanced"}, "B6": {"name": "mNb6 humanised variant, AbNatiV Exhaustive sampling (VHH)", "VHH": "EVQLVESGGGLVQPGGSLRLSCAASGYIFGRNAMGWYRQAPGKGLEWVAGITRRGSITYYADSVKGRFTISRDNAKNTVFLQMDSLRPEDTAVYYCAADPASPAYGDYWGQGTLVTVSS", "notes": "Parent: mNb6 WT; also called mNb6 Exhaustive"}, "B7": {"name": "mNb6 humanised variant, AbNatiV Exhaustive sampling (+buried) (VHH)", "VHH": "EVQLVESGGGLVQPGGSLRLSCAASGYIFGRNAMGWVRQAPGKGLEWVAGITRRGSITYYADSVKGRFTISRDNAKNTVYLQMDSLRPEDTAVYYCAADPASPAYGDYWGQGTLVTVSS", "notes": "Parent: mNb6 WT; also called mNb6 Exhausted Sampling + buried; Exhausted +buried"}, "B8": {"name": "Nb24 WT nanobody (VHH)", "VHH": "QVQLQESGGGSVQAGGSLRLSCAASGYTDSRYCMAWFRQAPGKEREWVARINSGRDITYYADSVKGRFTFSQDNAKNTVYLQMDSLEPEDTATYYCATDIPLRCRDIVAKGGDGFRYWGQGTQVTVSS", "notes": "source: E. coli Shuffle LysY, secreted to the medium, purified (His Mag Sepharose Excel beads, SEC Superdex 75)"}, "B9": {"name": "Nb24 humanised variant, AbNatiV Exhaustive sampling (VHH)", "VHH": "EVQLVESGGGLVQPGGSLRLSCAASGYTDSRYCMAWFRQAPGKGLEWVARINSGRDITYYADSVKGRFTFSRDNAKNTVYLQMDSLRPEDTAVYYCATDIPLRCRDIVAKGGDGFRYWGQGTQVTVSS", "notes": "Parent: Nb24 WT; also called Nb24 Exhaustive; source: E. coli Shuffle LysY, secreted to the medium, purified (His Mag Sepharose Excel beads, SEC Superdex 75)"}, "B10": {"name": "Nb24 humanised variant, AbNatiV Enhanced sampling (+buried) (VHH)", "VHH": "EVQLLESGGGLVQPGGSLRLSCAASGYTDSRYCMAWFRQAPGKEREWVARINSGRDITYYADSVKGRFTVSRDNSKNTVYLQMDSLRPEDTAVYYCATDIPLRCRDIVAKGGDGFRYWGQGTQVTVSS", "notes": "Parent: Nb24 WT; source: E. coli Shuffle LysY, secreted to the medium, purified (His Mag Sepharose Excel beads, SEC Superdex 75)"}, "B11": {"name": "Nb24 humanised variant, AbNatiV Enhanced sampling (VHH)", "VHH": "EVQLLESGGGLVQPGGSLRLSCAASGYTDSRYCMAWFRQAPGKEREWVARINSGRDITYYADSVKGRFTFSRDNSKNTVYLQMDSLRPEDTAVYYCATDIPLRCRDIVAKGGDGFRYWGQGTQVTVSS", "notes": "Parent: Nb24 WT; also called Nb24 Enhanced; source: E. coli Shuffle LysY, secreted to the medium, purified (His Mag Sepharose Excel beads, SEC Superdex 75)"}},
  "key": {"[1]": {"target": "T1, β2-microglobulin, biotinylated (Homo sapiens, UniProt P61769)", "T1 construct": "β2-microglobulin, human; Surmise: such E. coli constructs are usually the mature protein with an added first methionine; also called human β2-microglobulin; recombinant β2-microglobulin", "T1 sequence (P61769 21-119)": "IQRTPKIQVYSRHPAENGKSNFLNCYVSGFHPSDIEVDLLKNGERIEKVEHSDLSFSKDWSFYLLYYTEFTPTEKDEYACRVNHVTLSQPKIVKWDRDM", "assay": "BLI; Octet-BLI K2; SA sensors loaded with 50 nM biotinylated β2-microglobulin; Nb24 variants in solution (25-400 nM in Fig. 5C); PBS + 0.05% Tween-20, 30°C, 1000 rpm; global fit, 1:1 partial dissociation binding model; KD mean of 3 independent experiments", "conditions": "both partners purified"}, "[2]": {"target": "T2, SARS-CoV-2 Spike receptor-binding domain (RBD), biotinylated (SARS-CoV-2, strain ; …, UniProt P0DTC2)", "T2 construct": "also called SARS-CoV-2 RBD; SarS-CoV-2 RBD", "assay": "BLI", "conditions": "both partners purified"}},
  "data": [
    {"binder": "B1", "values": [
      {"measurement": "binding result", "setting": "[1]", "result": "binds"}
    ]},
    {"binder": "B2", "values": [
      {"measurement": "binding result", "setting": "[1]", "result": "binds"}
    ]},
    {"binder": "B3", "values": [
      {"measurement": "binding result", "setting": "[2]", "result": "binds"}
    ]},
    {"binder": "B4", "values": [
      {"measurement": "binding result", "setting": "[2]", "result": "no binding (tested: 500 nM)"}
    ]},
    {"binder": "B5", "values": [
      {"measurement": "Kd", "setting": "[2]", "result": 0.86, "unit": "nM"}
    ]},
    {"binder": "B6", "values": [
      {"measurement": "Kd", "setting": "[2]", "result": 15, "unit": "nM"}
    ]},
    {"binder": "B7", "values": [
      {"measurement": "binding result", "setting": "[2]", "result": "binds"}
    ]},
    {"binder": "B8", "values": [
      {"measurement": "Kd", "setting": "[1]", "result": 79, "unit": "nM"}
    ]},
    {"binder": "B9", "values": [
      {"measurement": "Kd", "setting": "[1]", "result": 75, "unit": "nM"}
    ]},
    {"binder": "B10", "values": [
      {"measurement": "binding result", "setting": "[1]", "result": "binds"}
    ]},
    {"binder": "B11", "values": [
      {"measurement": "Kd", "setting": "[1]", "result": 68, "unit": "nM"}
    ]}
  ]
}
